Measurements as given in patent publication US20230221313A1.

Target: HIV-1 BG505.W6M.Env.C2 pseudovirus (Env) (HIV-1)
Experiment: cell-based or functional assay

| Substance | Fold change GFP-/GFP+ (droplet neutralization, NGS reads), Round 1 |
| --- | --- |
| VRC34 (antibody) | 1.78 |
| anti-HIV antibody VRC01 | 1.08 |
